Measured values reported in the supplement of paper PMC7877785.
± gives the uncertainty stated by the source.

Assay: self-splicing fitness, log relative to wild type (ln ratio); higher = more splicing; Tetrahymena group I intron in knt gene, E. coli kanamycin selection, DiMSum; sequences stand for … in CUCUCU…GGAGGGAAAAGUUAUCAGGCAUGCACCUGGUAGCUAGUCUUUAAACCAAUAGAUUGCAUCGGUUUAAAAGGCAAGACCGUCAAAUUGCGGGAAAGGGGUCAACAGCCGUUCAGUACCAAGUCUCAGGGGAAACUUUGAGAUGGCCUUGCAAAGGGUAUGGUAAUAAGCUGACGGACAUGGUCCUAACCACGCAGCCAAGUCCUAAGUCAACAGAUCUUCUGUUGAUAUGGAUGCAGUUCACAGACUAAAUGUCGGUCGGGGAAGAUGUAUUCUUCUCAUAAGAUAUAGUCGGACCUCUCCUUAAUGGGAGCUAGCGGAUGAAGUGAUGCAACACUGGAGCCGCUGGGAACUAAUUUGUAUGCGAAAGUAUAUUGAUUAGUUUUGGAGUACUCGUGGUCG
Outline: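 Colonies from six replicate transformations of E. coli BL21(DE3) were pooled and amplicon-sequenced on an Illumina HiSeq 2500. The library placed an intron with all eight P1ex-region nucleotides randomised inside the knt kanamycin-resistance gene on pET-22b(+), and cells grew overnight at 37°C or 30°C on LB agar with or without 25 μg/mL kanamycin (plus 100 μg/mL carbenicillin, 50 μM IPTG, 0.2% rhamnose). Fitness is the DiMSum error-weighted combination of wild-type-normalised replicate fold changes, kanamycin versus none.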

Sequence	self-splicing fitness (ln) (37 °C)	self-splicing fitness (ln) (30 °C)
UUUUAGCAAUAUUACGAUGC	-2.46 ± 0.38	
UUUUAGCAAUAUUACGCAGA	-0.506 ± 0.16	-0.713 ± 0.21
UUUUAGCAAUAUUACGCGAG	-0.226 ± 0.097	-1.15 ± 0.077
UUUUAGCAAUAUUACGCGAU	-1.97 ± 0.27	-3.02 ± 0.34
UUUUAGCAAUAUUACGGAGA	-1.62 ± 0.27	-1.93 ± 0.35
UUUUAGCAAUAUUACGGAGC	-2.37 ± 0.49	-2.24 ± 0.38
UUUUAGCAAUAUUACGGAGG	-1.48 ± 0.22	-2.86 ± 0.27
UUUUAGCAAUAUUACGGAGU	-1.95 ± 0.28	-2.29 ± 0.33
UUUUAGCAAUAUUACGGAUU	-1.36 ± 0.15	-1.8 ± 0.1
UUUUAGCAAUAUUACGGCAA	-0.398 ± 0.15	0.145 ± 0.12
UUUUAGCAAUAUUACGGCCU	-1.87 ± 0.33	-1.53 ± 0.26
UUUUAGCAAUAUUACGGCGU	-0.915 ± 0.45	-1.89 ± 0.21
UUUUAGCAAUAUUACGGGUA	-0.417 ± 0.28	-1.75 ± 0.3
UUUUAGCAAUAUUACGGGUC	-2.96 ± 0.38	-3.73 ± 0.4
UUUUAGCAAUAUUACGGUCC	-1.73 ± 0.43	-2.8 ± 0.5
UUUUAGCAAUAUUACGUAUC	-2.56 ± 0.33	
UUUUAGCAAUAUUACGUCAU	-1.47 ± 0.29	-3 ± 0.28
UUUUAGCAAUAUUACGUCUA	-0.292 ± 0.2	-0.819 ± 0.23
